Experimental data: PMC5976236

Assays:
[1] = target: Muc2 from colon of wild-type C57BL/6 mice (mouse (endogenous in C57BL/6 colon)) (UniProt Q80Z19); experiment: atomic force microscopy force spectroscopy; C-type lectins attached to the AFM tip via the PEG linker, mucin covalently attached to the glass slide; PBS; 1024 force curves
[2] = target: recombinant human galectin-3 (human) (UniProt P17931); experiment: atomic force microscopy force spectroscopy; Gal-3 attached to a slide, mDectin-2 or SIGN-R1 (untreated or PNGase F-treated) on the AFM tips; PBS
Chain of recombinant human galectin-3 (human) (P17931 whole entry): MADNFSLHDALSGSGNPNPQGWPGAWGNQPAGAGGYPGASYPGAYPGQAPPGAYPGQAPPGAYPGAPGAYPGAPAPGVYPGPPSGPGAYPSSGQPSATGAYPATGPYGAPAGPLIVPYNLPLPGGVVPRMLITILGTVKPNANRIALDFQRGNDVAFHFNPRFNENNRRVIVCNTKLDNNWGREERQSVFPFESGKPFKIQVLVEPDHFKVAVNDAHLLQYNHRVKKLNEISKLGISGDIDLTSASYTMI

Chain of Muc2 from colon of wild-type C57BL/6 mice (mouse (endogenous in C57BL/6 colon)) (Q80Z19 21-4576): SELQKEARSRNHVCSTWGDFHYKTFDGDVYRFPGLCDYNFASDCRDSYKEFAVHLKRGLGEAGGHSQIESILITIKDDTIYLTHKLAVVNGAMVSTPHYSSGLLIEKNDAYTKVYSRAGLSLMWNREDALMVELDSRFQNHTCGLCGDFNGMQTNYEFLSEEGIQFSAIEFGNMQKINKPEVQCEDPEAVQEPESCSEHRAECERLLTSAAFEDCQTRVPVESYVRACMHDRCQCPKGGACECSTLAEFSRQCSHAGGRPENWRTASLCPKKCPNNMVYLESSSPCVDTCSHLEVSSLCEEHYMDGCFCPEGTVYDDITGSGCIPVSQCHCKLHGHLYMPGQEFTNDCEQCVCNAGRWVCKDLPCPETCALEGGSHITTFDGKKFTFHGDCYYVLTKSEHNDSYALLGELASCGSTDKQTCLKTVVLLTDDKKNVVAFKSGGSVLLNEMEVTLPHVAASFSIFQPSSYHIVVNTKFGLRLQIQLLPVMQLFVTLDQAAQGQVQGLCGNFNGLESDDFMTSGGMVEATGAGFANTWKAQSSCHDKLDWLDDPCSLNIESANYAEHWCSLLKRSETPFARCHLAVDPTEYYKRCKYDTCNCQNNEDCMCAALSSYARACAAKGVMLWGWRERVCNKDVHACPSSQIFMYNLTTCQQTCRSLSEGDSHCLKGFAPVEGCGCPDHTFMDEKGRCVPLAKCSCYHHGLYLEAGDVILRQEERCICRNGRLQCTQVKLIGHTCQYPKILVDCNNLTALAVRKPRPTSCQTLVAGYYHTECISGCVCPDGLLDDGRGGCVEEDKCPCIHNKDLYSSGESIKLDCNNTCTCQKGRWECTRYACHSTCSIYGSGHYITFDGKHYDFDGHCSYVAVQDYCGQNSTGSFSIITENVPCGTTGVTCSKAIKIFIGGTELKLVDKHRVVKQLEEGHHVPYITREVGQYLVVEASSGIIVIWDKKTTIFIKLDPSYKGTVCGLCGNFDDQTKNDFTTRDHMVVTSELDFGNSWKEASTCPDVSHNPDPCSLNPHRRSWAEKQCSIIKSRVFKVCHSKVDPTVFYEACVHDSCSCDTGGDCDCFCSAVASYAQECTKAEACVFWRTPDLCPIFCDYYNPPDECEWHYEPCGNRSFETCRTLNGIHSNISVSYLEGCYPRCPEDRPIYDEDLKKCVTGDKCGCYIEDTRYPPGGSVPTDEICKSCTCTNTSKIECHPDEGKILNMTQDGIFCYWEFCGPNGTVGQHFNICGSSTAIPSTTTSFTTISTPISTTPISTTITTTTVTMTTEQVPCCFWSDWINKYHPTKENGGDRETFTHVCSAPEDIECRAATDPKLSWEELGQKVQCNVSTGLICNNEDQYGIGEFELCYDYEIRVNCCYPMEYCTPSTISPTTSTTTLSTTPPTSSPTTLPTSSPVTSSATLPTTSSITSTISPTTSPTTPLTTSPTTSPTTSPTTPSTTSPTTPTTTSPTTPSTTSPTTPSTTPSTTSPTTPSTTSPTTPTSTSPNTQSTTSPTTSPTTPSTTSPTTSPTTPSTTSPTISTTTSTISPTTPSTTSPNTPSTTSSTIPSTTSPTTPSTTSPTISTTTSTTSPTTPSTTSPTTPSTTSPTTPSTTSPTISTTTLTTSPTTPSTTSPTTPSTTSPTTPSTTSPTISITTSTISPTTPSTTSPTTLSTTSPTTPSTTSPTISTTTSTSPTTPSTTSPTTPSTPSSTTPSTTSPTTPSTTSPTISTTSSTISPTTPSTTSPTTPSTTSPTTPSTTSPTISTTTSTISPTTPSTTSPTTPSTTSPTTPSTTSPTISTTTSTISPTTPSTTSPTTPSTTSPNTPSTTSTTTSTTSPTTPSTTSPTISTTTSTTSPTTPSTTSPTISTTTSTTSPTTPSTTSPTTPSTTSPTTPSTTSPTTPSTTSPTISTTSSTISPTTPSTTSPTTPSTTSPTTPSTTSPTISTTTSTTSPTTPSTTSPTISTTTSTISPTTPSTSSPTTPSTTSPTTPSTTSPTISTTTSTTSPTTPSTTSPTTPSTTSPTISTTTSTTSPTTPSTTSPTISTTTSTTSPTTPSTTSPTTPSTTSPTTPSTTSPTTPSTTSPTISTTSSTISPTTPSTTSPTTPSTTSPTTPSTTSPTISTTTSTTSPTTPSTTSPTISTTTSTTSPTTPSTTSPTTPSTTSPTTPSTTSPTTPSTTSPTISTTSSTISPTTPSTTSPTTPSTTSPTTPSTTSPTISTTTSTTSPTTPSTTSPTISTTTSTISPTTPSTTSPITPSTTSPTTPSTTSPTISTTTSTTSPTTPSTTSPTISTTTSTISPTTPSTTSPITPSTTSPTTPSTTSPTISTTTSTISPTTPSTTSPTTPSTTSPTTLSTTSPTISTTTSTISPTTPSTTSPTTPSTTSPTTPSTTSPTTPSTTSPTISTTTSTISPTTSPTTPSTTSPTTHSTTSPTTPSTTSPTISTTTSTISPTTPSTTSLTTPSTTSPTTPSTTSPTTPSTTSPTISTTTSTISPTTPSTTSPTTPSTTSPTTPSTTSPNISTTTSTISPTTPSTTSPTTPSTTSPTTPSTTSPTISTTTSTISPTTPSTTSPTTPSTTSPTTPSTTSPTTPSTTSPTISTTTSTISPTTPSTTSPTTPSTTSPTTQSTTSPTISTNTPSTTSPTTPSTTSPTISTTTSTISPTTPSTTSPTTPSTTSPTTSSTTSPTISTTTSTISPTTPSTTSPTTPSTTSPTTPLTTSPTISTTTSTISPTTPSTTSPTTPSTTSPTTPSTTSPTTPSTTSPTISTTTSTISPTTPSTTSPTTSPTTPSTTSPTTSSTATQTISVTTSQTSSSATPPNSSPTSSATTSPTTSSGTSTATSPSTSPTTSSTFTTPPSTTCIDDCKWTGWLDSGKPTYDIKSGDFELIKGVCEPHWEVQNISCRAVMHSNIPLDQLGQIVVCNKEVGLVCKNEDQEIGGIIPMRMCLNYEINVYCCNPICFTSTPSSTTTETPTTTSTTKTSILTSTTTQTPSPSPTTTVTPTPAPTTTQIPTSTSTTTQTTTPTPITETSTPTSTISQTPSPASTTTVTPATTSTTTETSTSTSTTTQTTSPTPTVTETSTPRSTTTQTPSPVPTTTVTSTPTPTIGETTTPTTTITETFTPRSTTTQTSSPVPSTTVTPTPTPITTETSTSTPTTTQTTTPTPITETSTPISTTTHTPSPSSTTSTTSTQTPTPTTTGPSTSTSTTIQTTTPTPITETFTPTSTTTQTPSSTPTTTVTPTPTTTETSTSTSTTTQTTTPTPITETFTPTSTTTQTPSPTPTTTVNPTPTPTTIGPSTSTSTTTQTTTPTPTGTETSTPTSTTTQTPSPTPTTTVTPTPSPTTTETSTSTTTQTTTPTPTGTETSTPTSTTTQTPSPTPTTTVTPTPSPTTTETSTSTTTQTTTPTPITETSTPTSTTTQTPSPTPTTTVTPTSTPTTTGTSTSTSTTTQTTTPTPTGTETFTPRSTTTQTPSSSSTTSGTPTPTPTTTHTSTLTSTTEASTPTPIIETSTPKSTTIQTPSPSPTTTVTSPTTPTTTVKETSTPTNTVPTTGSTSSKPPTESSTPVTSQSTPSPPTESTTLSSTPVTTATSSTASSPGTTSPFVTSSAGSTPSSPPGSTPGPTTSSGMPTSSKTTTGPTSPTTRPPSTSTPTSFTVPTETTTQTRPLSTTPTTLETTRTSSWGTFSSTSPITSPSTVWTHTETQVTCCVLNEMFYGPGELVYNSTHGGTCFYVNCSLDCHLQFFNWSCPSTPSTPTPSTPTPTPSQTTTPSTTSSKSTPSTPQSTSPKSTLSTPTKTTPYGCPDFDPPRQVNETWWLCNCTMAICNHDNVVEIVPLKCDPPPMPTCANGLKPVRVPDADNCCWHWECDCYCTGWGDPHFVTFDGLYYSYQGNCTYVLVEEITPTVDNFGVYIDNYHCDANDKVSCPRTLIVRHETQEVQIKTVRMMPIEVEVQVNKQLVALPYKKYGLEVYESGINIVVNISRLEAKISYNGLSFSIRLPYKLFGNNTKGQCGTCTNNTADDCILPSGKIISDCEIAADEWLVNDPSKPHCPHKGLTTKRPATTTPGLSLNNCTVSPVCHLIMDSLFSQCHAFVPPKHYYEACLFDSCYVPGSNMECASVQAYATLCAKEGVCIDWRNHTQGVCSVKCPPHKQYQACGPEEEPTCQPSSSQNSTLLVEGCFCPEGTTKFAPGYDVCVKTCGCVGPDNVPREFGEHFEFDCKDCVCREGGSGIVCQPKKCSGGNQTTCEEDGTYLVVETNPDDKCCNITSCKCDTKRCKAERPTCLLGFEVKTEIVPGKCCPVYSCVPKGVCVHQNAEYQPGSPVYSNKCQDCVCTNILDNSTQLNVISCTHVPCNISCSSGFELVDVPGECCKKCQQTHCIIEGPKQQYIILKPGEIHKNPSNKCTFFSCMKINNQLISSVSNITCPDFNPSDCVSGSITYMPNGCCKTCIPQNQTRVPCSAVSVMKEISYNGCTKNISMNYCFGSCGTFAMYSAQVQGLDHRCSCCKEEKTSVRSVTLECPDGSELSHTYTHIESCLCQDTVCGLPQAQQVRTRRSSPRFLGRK

recombinant murine SIGN-R1 (from UniProt Q8CJ91 1-325) (receptor)
adhesion force of some binding events [1]: 3210 pN
modal value of adhesions [1]: 292 pN
modal value of adhesion [2]: 17.1 pN
